Experimental data published in US20040071656A1, “Modulation of heat-shock-protein-based immunotherapies” (priority 2001, published 2004).

Target: T1, exoplasmic domain of human CD40 (GST-CD40) (Homo sapiens, UniProt P25942)
T1 construct: The cDNA for the exoplasmic domain of CD40 (amino acids 20-212); made in house; host or cells: E. coli, pGEX-2T
Assay: GST-CD40 binding and competition assay with recombinant Hsp70 and its domains
Description: For binding assays with recombinant Hsp70 and its domains, 3 μM His6-Hsp70 or its His6-tagged domains were incubated with 2 mM ATP, 2 mM ADP or 2 mM ADP and 28 μM peptide C in 50 μl binding buffer (10 mM MOPS/KOH, pH 7.2, 150 mM KCl and 3 mM MgCl2) for 30 min at 37° C. In competition experiments binding was probed with either a 10-fold excess of Hsp70, the two domains, or DnaK, or with a 5-fold excess of Hip or Bag 1 for 10 min at 0° C. To this end, Hsp70, N70, C70 and DnaK were preincubated with ADP, ATP and peptide C as described above. For comparison of CD40 binding of Hsp70 and its N-terminal domain, Hsp70 was preincubated in the presence or absence (mock treatment) of a 30-fold molar excess of peptide C. 3 μM of GST or GST-CD40 was added to the samples and incubated for 20 min at 16° C. For titration of peptide C, 5- to 50-fold excess of peptide C (15-150 μM) was added to the preincubation of Hsp70. Thereafter the samples were combined with 20 μl of 1% BSA-treated Glutathione Sepharose 4 Fast Flow and incubated in the presence of 2 mM DTT for another 20 min at 16° C. Unbound proteins were removed by washing the beads three times with 1 ml PBS, and immobilized proteins eluted with 30 μl elution buffer for 20 min at 22° C. 10 μl of the eluates were subjected to SDS-PAGE and analyzed by immunoblotting using a Penta-His-antibody (Quiagen). Blot signals were quantified by Quantity One (Biorad).
Details for FIG. 3. Binding of Hsp70 to CD40 is direct and depends on ADP. A. Hela-cell lysates were incubated with GST (control), or GST-CD40 in the amounts indicated. Thereafter samples were affinity purified on glutathione-Sepharose as outlined in Experimental Procedures, subjected to SDS-PAGE and analyzed by immunoblotting with antibodies directed against Hsc70 and Hsp70 (upper lanes), and against Hsp90 (lower lanes). B. Human recombinant His6-tagged Hsp70 was incubated with ATP, ADP, or an excess of peptide C, followed by addition of GST-CD40 or GST alone. After affinity purification samples were analyzed by immunoblotting as described in A, using antibodies directed against the His6-tag. C. Recombinant human His6-tagged Hsp70 was incubated with peptide C, either in the presence or absence of ADP. The reactions were then incubated with ANA1-cell lysates as described in Experimental Procedures. Protein bound to Hsp70 was analyzed by affinity purification on Ni-NTA-agarose and immunoblotting with antibodies directed against CD40.
Details for FIG. 4. Hsp70 binding to CD40 is mediated by the N-terminal ATPase domain and is competed by Hip. A. Human His6-tagged Hsp70, its N- or C-terminal domains, or recombinant bacterial DnaK was incubated either with GST-CD40, or with GST. B. Recombinant DnaK was incubated with ATP, ADP, or an excess of peptide C, followed by addition of GST-CD40 or GST alone. C. His6-tagged N-terminal domain of Hsp70 (N70) was incubated in the presence of ATP or ADP, followed by incubation with a 10-fold molar excess of Hsp70 in the presence of ADP or ATP. D: Recombinant human His6-tagged Hsp70 protein was incubated with a 5-fold molar excess of either recombinant Hip protein or Bag-1, and with GST-CD40 or GST as a control. Bound protein was analyzed after affinity purification on glutathione-Sepharose by immunoblotting with an antibody directed against the N-terminal His6-tags or with an antibody directed against DnaK.
Details for FIG. 5. Peptide substrate stimulates Hsp70 binding to CD40. A. His6-tagged Hsp70 was incubated with increasing concentrations of peptide C as indicated in the Figure, and binding to GST-CD40 analyzed by immunoblotting with antibodies directed against the His6-tag. The lower panel is a quantitation of the data. B. Equivalent concentrations (3 μM) of His6-tagged Hsp70 (in the presence of a 30-fold molar excess of peptide C) or His6-tagged N70 was incubated with GST-CD40, and bound protein was analyzed as described above.

T1 sequence (P25942 20-212): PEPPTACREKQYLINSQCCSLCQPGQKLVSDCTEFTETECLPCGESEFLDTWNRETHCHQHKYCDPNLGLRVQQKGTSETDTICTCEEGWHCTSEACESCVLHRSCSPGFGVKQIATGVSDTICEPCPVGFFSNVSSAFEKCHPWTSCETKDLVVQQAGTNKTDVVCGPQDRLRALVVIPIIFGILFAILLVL

| Substance | binding efficiency to CD40, substrate-saturated Hsp70 versus N-terminal domain (3 μM each, ADP states, Hsp70 with 30-fold molar excess of peptide C) | direct binding to CD40 (GST-CD40 pull down), nucleotide dependence (ADP versus ATP) | competition for the binding of full-length Hsp70 to CD40 (ADP, 5-fold molar excess of competitor) | Hsp70 binding to CD40 in the presence of ADP (3 μM His6-Hsp70, 2 mM ADP) | Hsp70 binding to CD40 in the presence of ATP (3 μM His6-Hsp70, 2 mM ATP) |
| --- | --- | --- | --- | --- | --- |
| N70: Recombinant N-terminal ATPase domain of human Hsp70, residues 5-381 (SEQ ID NO: 1) | bound to CD40 with similar efficiencies | bound to CD40 in the presence of ADP but not ATP | efficiently competed |  |  |
| Hsp70: Recombinant human heat shock protein 70, expressed and purified as His-tagged protein |  |  |  | only seen in the presence of ADP | barely detectable |
